The source of these data is article PMC5666746.

For this assay, the target named is recombinant extra-cellular domain sequence of DR5 (sDR5) protein (human). The assay can be described thus: BLI; ForteBio Octet QKe; biotinylated sDR5 loaded on streptavidin sensors at 1 μM; scFv at two-fold serial dilutions 93.75-6000 nM in SD Buffer (PBS, pH 7.4, 0.02% Tween 20, 0.1% BSA); association 5 min, dissociation 10 min.
Sequence of recombinant extra-cellular domain sequence of DR5 (sDR5) protein (human) (O14763 whole entry, the tested form may be a part): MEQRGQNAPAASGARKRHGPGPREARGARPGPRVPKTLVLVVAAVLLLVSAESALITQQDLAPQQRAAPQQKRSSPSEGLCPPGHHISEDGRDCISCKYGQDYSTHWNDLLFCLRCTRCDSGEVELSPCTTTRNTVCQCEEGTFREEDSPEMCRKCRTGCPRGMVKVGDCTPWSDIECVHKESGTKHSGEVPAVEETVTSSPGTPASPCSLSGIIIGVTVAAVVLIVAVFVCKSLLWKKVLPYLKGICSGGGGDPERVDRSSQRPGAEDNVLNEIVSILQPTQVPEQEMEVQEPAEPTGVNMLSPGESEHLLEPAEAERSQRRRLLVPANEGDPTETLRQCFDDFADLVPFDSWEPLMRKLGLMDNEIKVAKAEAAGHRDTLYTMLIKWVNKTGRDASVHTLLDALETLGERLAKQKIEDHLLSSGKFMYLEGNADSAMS

B1: TR2-3, fully human agonistic anti-DR5 single chain fragment variable (scFv) antibody (scFv)
scFv: QVQLQESGPGLVKPSGTLSLTCAVSGGSISSSNWWSWVRQPPGKGLEWIGEIYHSGSTNYNPSLKSRVTISVDKSKNQFSLKLSSVTAADTAVYYCARGAAAGTANDAFDIWGQGTMVTVSSGGGGSGGGGSGGGGSETTLTQSPGILSLSPGERASLSCRASQSVPHNYLAWYQQKPGQAPRLLIYGASNRATGIPDRFSGSGSETDFTLTVTRLAPEDFAVYYCQQYGRSLTFGGGTKVEIKR
Regarding B1, the Kd came out at 126 nM, the koff amounted to 0.00144 s⁻¹ and the kon is 11500 M⁻¹ s⁻¹.
